According to the supplement of paper PMC5998384:

Columns and labels:
[1] = tested on: HeLa Kyoto; experiment: solubility in G1/S (NP-40 vs SDS abundance) (log2 ratio); higher = more soluble; details: cell cycle stage: G1/S
[2] = tested on: HeLa Kyoto; experiment: solubility change mitosis vs G1/S (difference of NP-40 vs SDS log2 ratios) (log2 ratio difference); higher = more soluble in mitosis
[3] = tested on: HeLa Kyoto; experiment: melting temperature (median over replicates), in situ; higher = more thermally stable
[4] = tested on: HeLa Kyoto; experiment: thermal stability score vs G1/S (z-score of summed log2 fold changes over temperatures); higher = more thermally stable than in G1/S
[5] = cell cycle stage: early G1 (4.5 h after nocodazole release)
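Throughout, for melting temperature (median over replicates), in situ: HeLa Kyoto cells synchronized by double thymidine or nocodazole block, proteins quantified by TMT10plex mass spectrometry, three independent biological replicates.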
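Throughout, for solubility change mitosis vs G1/S (difference of NP-40 vs SDS log2 ratios): synchronized HeLa Kyoto cells (double thymidine block for G1/S, nocodazole release for mitosis), protein amounts in NP-40 versus SDS lysates quantified by mass spectrometry, three biological replicates.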
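Throughout, for solubility in G1/S (NP-40 vs SDS abundance): HeLa Kyoto cells arrested at G1/S by double thymidine block, proteins quantified by TMT10plex mass spectrometry in mild NP-40 versus SDS extracts, three biological replicates.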
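Throughout, for thermal stability score vs G1/S (z-score of summed log2 fold changes over temperatures): synchronized HeLa Kyoto cells, proteins quantified by TMT10plex mass spectrometry, three biological replicates, mitosis taken 0.5 h after nocodazole release, G1/S directly after double thymidine block.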

| Substance | solubility in G1/S (log2) [1] | solubility change mitosis (log2) [2] | melting temperature ([3]; cell cycle stage: mitosis) [°C] | thermal stability score [4, 5] | thermal stability score ([4]; cell cycle stage: mitosis) | melting temperature ([3]; cell cycle stage: G1/S) [°C] |
| --- | --- | --- | --- | --- | --- | --- |
| MDALKSAGRALIRSPSLAKQSWGGGGRHRKLPENWTDTRETLLEGMLFSLKYLGMTLVEQPKGEELSAAAIKRIVATAKASGKKLQKVTLKVSPRGIILTDNLTNQLIENVSIYRISYCTADKMHDKVFAYIAQSQHNQSLECHAFLCTKRKMAQAVTLTVAQAFKVAFEFWQVSKEEKEKRDKASQEGGDVLGARQDCTPSLKSLVATGNLLDLEETAKAPLSTVSANTTNMDEVPRPQALSGSSVVWELDDGLDEAFSRLAQSRTNPQVLDTGLTAQDMHYAQCLSPVDWDKPDSSGTEQDDLFSF [LDLRAP1] | 0.466 | 0.0321 | 50 | -0.147 | 0.000284 |  |
| MPDYLGADQRKTKEDEKDDKPIRALDEGDIALLKTYGQSTYSRQIKQVEDDIQQLLKKINELTGIKESDTGLAPPALWDLAADKQTLQSEQPLQVARCTKIINADSEDPKYIINVKQFAKFVVDLSDQVAPTDIEEGMRVGVDRNKYQIHIPLPPKIDPTVTMMQVEEKPDVTYSDVGGCKEQIEKLREVVETPLLHPERFVNLGIEPPKGVLLFGPPGTGKTLCARAVANRTDACFIRVIGSELVQKYVGEGARMVRELFEMARTKKACLIFFDEIDAIGGARFDDGAGGDNEVQRTMLELINQLDGFDPRGNIKVLMATNRPDTLDPALMRPGRLDRKIEFSLPDLEGRTHIFKIHARSMSVERDIRFELLARLCPNSTGAEIRSVCTEAGMFAIRARRKIATEKDFLEAVNKVIKSYAKFSATPRYMTYN [PSMC2] | 0.358 | -0.143 | 52 | 1.24 | 0.521 | 53.2 |
| MAVQESAAQLSMTLKVQEYPTLKVPYETLNKRFRAAQKNIDRETSHVTMVVAELEKTLSGCPAVDSVVSLLDGVVEKLSVLKRKAVESIQAEDESAKLCKRRIEHLKEHSSDQPAAASVWKRKRMDRMMVEHLLRCGYYNTAVKLARQSGIEDLVNIEMFLTAKEVEESLERRETATCLAWCHDNKSRLRKMKSCLEFSLRIQEFIELIRQNKRLDAVRHARKHFSQAEGSQLDEVRQAMGMLAFPPDTHISPYKDLLDPARWRMLIQQFRYDNYRLHQLGNNSVFTLTLQAGLSAIKTPQCYKEDGSSKSPDCPVCSRSLNKLAQPLPMAHCANSRLVCKISGDVMNENNPPMMLPNGYVYGYNSLLSIRQDDKVVCPRTKEVFHFSQAEKVYIM [MAEA] | -0.0777 | -0.0756 | 49.3 | -0.838 | -0.615 | 50.2 |
| MMEGLDDGPDFLSEEDRGLKAINVDLQSDAALQVDISDALSERDKVKFTVHTKSSLPNFKQNEFSVVRQHEEFIWLHDSFVENEDYAGYIIPPAPPRPDFDASREKLQKLGEGEGSMTKEEFTKMKQELEAEYLAIFKKTVAMHEVFLCRVAAHPILRRDLNFHVFLEYNQDLSVRGKNKKEKLEDFFKNMVKSADGVIVSGVKDVDDFFEHERTFLLEYHNRVKDASAKSDRMTRSHKSAADDYNRIGSSLYALGTQDSTDICKFFLKVSELFDKTRKIEARVSADEDLKLSDLLKYYLRESQAAKDLLYRRSRSLVDYENANKALDKARAKNKDVLQAETSQQLCCQKFEKISESAKQELIDFKTRRVAAFRKNLVELAELELKHAKGNLQLLQNCLAVLNGDT [SNX6] | 0.426 | -0.0637 | 50.1 | 1.82 | 0.524 | 51.1 |
| MADSSGQQGKGRRVQPQWSPPAGTQPCRLHLYNSLTRNKEVFIPQDGKKVTWYCCGPTVYDASHMGHARSYISFDILRRVLKDYFKFDVFYCMNITDIDDKIIKRARQNHLFEQYREKRPEAAQLLEDVQAALKPFSVKLNETTDPDKKQMLERIQHAVQLATEPLEKAVQSRLTGEEVNSCVEVLLEEAKDLLSDWLDSTLGCDVTDNSIFSKLPKFWEGDFHRDMEALNVLPPDVLTRVSEYVPEIVNFVQKIVDNGYGYVSNGSVYFDTAKFASSEKHSYGKLVPEAVGDQKALQEGEGDLSISADRLSEKRSPNDFALWKASKPGEPSWPCPWGKGRPGWHIECSAMAGTLLGASMDIHGGGFDLRFPHHDNELAQSEAYFENDCWVRYFLHTGHLTIAGCKMSKSLKNFITIKDALKKHSARQLRLAFLMHSWKDTLDYSSNTMESALQYEKFLNEFFLNVKDILRAPVDITGQFEKWGEEEAELNKNFYDKKTAIHKALCDNVDTRTVMEEMRALVSQCNLYMAARKAVRKRPNQALLENIALYLTHMLKIFGAVEEDSSLGFPVGGPGTSLSLEATVMPYLQVLSEFREGVRKIAREQKVPEILQLSDALRDNILPELGVRFEDHEGLPTVVKLVDRNTLLKEREEKRRVEEEKRKKKEEAARRKQEQEAAKLAKMKIPPSEMFLSETDKYSKFDENGLPTHDMEGKELSKGQAKKLKKLFEAQEKLYKEYLQMAQNGSFQ [CARS] | 0.0728 | -0.103 | 52.6 | 0.401 | -0.0333 | 52.9 |
| MSVDMNSQGSDSNEEDYDPNCEEEEEEEEDDPGDIEDYYVGVASDVEQQGADAFDPEEYQFTCLTYKESEGALNEHMTSLASVLKVSHSVAKLILVNFHWQVSEILDRYKSNSAQLLVEARVQPNPSKHVPTSHPPHHCAVCMQFVRKENLLSLACQHQFCRSCWEQHCSVLVKDGVGVGVSCMAQDCPLRTPEDFVFPLLPNEELREKYRRYLFRDYVESHYQLQLCPGADCPMVIRVQEPRARRVQCNRCNEVFCFKCRQMYHAPTDCATIRKWLTKCADDSETANYISAHTKDCPKCNICIEKNGGCNHMQCSKCKHDFCWMCLGDWKTHGSEYYECSRYKENPDIVNQSQQAQAREALKKYLFYFERWENHNKSLQLEAQTYQRIHEKIQERVMNNLGTWIDWQYLQNAAKLLAKCRYTLQYTYPYAYYMESGPRKKLFEYQQAQLEAEIENLSWKVERADSYDRGDLENQMHIAEQRRRTLLKDFHDT [ARIH2] | -0.242 | -0.151 | 52.3 | 0.643 | -0.0869 | 51.8 |
| LRBA | -0.115 | -0.148 | 51.2 | -0.555 | -0.768 | 51.2 |
| MSKGPGPGGSAASSAPPAATAQVLQAQPEKPQHYTYLKEFRTEQCPLFVQHKCTQHRPYTCFHWHFVNQRRRRSIRRRDGTFNYSPDVYCTKYDEATGLCPEGDECPFLHRTTGDTERRYHLRYYKTGICIHETDSKGNCTKNGLHCAFAHGPHDLRSPVYDIRELQAMEALQNGQTTVEGSIEGQSAGAASHAMIEKILSEEPRWQETAYVLGNYKTEPCKKPPRLCRQGYACPYYHNSKDRRRSPRKHKYRSSPCPNVKHGDEWGDPGKCENGDACQYCHTRTEQQFHPEIYKSTKCNDMQQSGSCPRGPFCAFAHVEQPPLSDDLQPSSAVSSPTQPGPVLYMPSAAGDSVPVSPSSPHAPDLSALLCRNSSLGSPSNLCGSPPGSIRKPPNLEGIVFPGESGLAPGSYKKAPGFEREDQVGAEYLKNFKCQAKLKPHSLEPRSQEQPLLQPKQDMLGILPAGSPLTSSISSSITSSLAATPPSPVGTSSVPGMNANALPFYPTSDTVESVIESALDDLDLNEFGVAALEKTFDNSTVPHPGSITIGGSLLQSSAPVNIPGSLGSSASFHSASPSPPVSLSSHFLQQPQGHLSQSENTFLGTSASHGSLGLNGMNSSIWEHFASGSFSPGTSPAFLSGPGAAELARLRQELDEANSTIKQWEESWKQAKQACDAWKKEAEEAGERASAAGAECELAREQRDALEVQVKKLQEELERLHAGPEPQALPAFSDLEALSLSTLYSLQKQLRAHLEQVDKAVFHMQSVKCLKCQEQKRAVLPCQHAALCELCAEGSECPICQPGRAHTLQS [UNK] | 0.0454 | -0.0731 | 50.9 | 0.349 | 1.68 | 51 |
| MKPGATGESDLAEVLPQHKFDSKSLEAYLNQHLSGFGAEREATLTIAQYRAGKSNPTFYLQKGFQTYVLRKKPPGSLLPKAHQIDREFKVQKALFSIGFPVPKPILYCSDTSVIGTEFYVMEHVQGRIFRDLTIPGLSPAERSAIYVATVETLAQLHSLNIQSLQLEGYGIGAGYCKRQVSTWTKQYQAAAHQDIPAMQQLSEWLMKNLPDNDNEENLIHGDFRLDNIVFHPKECRVIAVLDWELSTIGHPLSDLAHFSLFYFWPRTVPMINQGSYSENSGIPSMEELISIYCRCRGINSILPNWNFFLALSYFKMAGIAQGVYSRYLLGNNSSEDSFLFANIVQPLAETGLQLSKRTFSTVLPQIDTTGQLFVQTRKGQEVLIKVKHFMKQHILPAEKEVTEFYVQNENSVDKWGKPLVIDKLKEMAKVEGLWNLFLPAVSGLSHVDYALIAEETGKCFFAPDVFNCQAPDTGNMEVLHLYGSEEQKKQWLEPLLQGNITSCFCMTEPDVASSDATNIECSIQRDEDSYVINGKKWWSSGAGNPKCKIAIVLGRTQNTSLSRHKQHSMILVPMNTPGVKIIRPLSVFGYTDNFHGGHFEIHFNQVRVPATNLILGEGRGFEISQGRLGPGRIHHCMRTVGLAERALQIMCERATQRIAFKKKLYAHEVVAHWIAESRIAIEKIRLLTLKAAHSMDTLGSAGAKKEIAMIKVAAPRAVSKIVDWAIQVCGGAGVSQDYPLANMYAITRVLRLADGPDEVHLSAIATMELRDQAKRLTAKI [ACAD11] | -0.0959 | -0.0749 | 52.9 | 0.241 | -0.505 | 53.9 |
| MADAFGDELFSVFEGDSTTAAGTKKDKEKDKGKWKGPPGSADKAGKRFDGKLQSESTNNGKNKRDVDFEGTDEPIFGKKPRIEESITEDLSLADLMPRVKVQSVETVEGCTHEVALPAEEDYLPLKPRVGKAAKEYPFILDAFQREAIQCVDNNQSVLVSAHTSAGKTVCAEYAIALALREKQRVIFTSPIKALSNQKYREMYEEFQDVGLMTGDVTINPTASCLVMTTEILRSMLYRGSEVMREVAWVIFDEIHYMRDSERGVVWEETIILLPDNVHYVFLSATIPNARQFAEWICHLHKQPCHVIYTDYRPTPLQHYIFPAGGDGLHLVVDENGDFREDNFNTAMQVLRDAGDLAKGDQKGRKGGTKGPSNVFKIVKMIMERNFQPVIIFSFSKKDCEAYALQMTKLDFNTDEEKKMVEEVFSNAIDCLSDEDKKLPQVEHVLPLLKRGIGIHHGGLLPILKETIEILFSEGLIKALFATETFAMGINMPARTVLFTNARKFDGKDFRWISSGEYIQMSGRAGRRGMDDRGIVILMVDEKMSPTIGKQLLKGSADPLNSAFHLTYNMVLNLLRVEEINPEYMLEKSFYQFQHYRAIPGVVEKVKNSEEQYNKIVIPNEESVVIYYKIRQQLAKLGKEIEEYIHKPKYCLPFLQPGRLVKVKNEGDDFGWGVVVNFSKKSNVKPNSGELDPLYVVEVLLRCSKESLKNSATEAAKPAKPDEKGEMQVVPVLVHLLSAISSVRLYIPKDLRPVDNRQSVLKSIQEVQKRFPDGIPLLDPIDDMGIQDQGLKKVIQKVEAFEHRMYSHPLHNDPNLETVYTLCEKKAQIAIDIKSAKRELKKARTVLQMDELKCRKRVLRRLGFATSSDVIEMKGRVACEISSADELLLTEMMFNGLFNDLSAEQATALLSCFVFQENSSEMPKLTEQLAGPLRQMQECAKRIAKVSAEAKLEIDEETYLSSFKPHLMDVVYTWATGATFAHICKMTDVFEGSIIRCMRRLEELLRQMCQAAKAIGNTELENKFAEGITKIKRDIVFAASLYL [SKIV2L2] | -0.515 | 0.119 | 51.2 | 0.414 | -1.19 | 51.3 |
